Reference: PMC8291048

Target: PKM2, endogenous in T24 cells (human (endogenous in T24)) (UniProt P14618)
Assay: cross-linking; T24 cells (LV-DPYSL2, siDPYSL2 or negative control) lysed in 0.5% Triton X-100 sodium phosphate buffer pH 7.3; supernatant treated with 1% formaldehyde for 30 min; Western blot for PKM2 monomer, dimer and tetramer

stoichiometry N: 2
Substance: PKM2, endogenous in T24 cells (from UniProt P14618 1-531) (enzyme; other documents disagree on this pair)
